The values below come from patent publication US20230272048A1 (UNIVERSITY OF MELBOURNE, published 2023).

Sequences and labels used below:
B1: VRC01 (antibody, V domains shown)
VH: QVQLVQSGGQMKKPGESMRISCRASGYEFIDCTLNWIRLAPGKRPEWMGWLKPRGGAVNYARPLQGRVTMTRDVYSDTAFLELRSLTVDDTAVYFCTRGKNCDYNWDFEHWGRGTPVIVSS
VL: EIVLTQSPGTLSLSPGETAIISCRTSQYGSLAWYQQRPGQAPRLVIYSGSTRAAGIPDRFSGSRWGPDYNLTISNLESGDFGVYYCQQYEFFGQGTKVQVDI
B2: 1842 heavy chain with NC-Cow1 light chain (antibody)
VH: KVQLQESGPSLVKPSQTLSLTCTASGFSLSDKAVGWVRQAPGQALEWLGSIDTGGNADYNPGLKSRLSITKDNAKSQVSLSVSSVTTEGSATYYCSTVHQKTLRSCPSDYPYICDCEDTGSHCCRATNCPYYCNHGRDRMCTGRTYTYEWHVEAWGQGLLVTVSS
VL: HSYELTQPSSVSGSLGQRVSVTCSGSSSNVGNGYVSWYQLIPGSAPRTIIYGDTSRASGVPERFSGSRSGNTATLTISSLQAEDEADFFCASPDDSSSNAVFGSGTTLTVL
B3: 1872 heavy chain with NC-Cow1 light chain (antibody)
VH: KVQLRESGPSLVKPSQTLSLTCTASGFSLSDKAVGWVRQAPGQPLEWLGTIDTTGNAVYNPGLKSRLSITKDNSKSQVSLSLSSVTTEDSATYHCSTVHQKTRRSCPSDYSFICDCEGTGSHCCRASNCPYYCNYGRDRMCTGRSNIHEWHVDAWGQGLLVTVSS
VL: B2 VL

The test addresses AD8 WT Env (gp160, from lysed pseudovirions / on pseudovirus) (HIV-1 AD8, clade B). Put plainly: cell-based or functional assay.
Turning to B1, the “IC50 (read off the curve); axis Neutralisation (%), panel AD8” value (from here on “IC50 (read off the curve) … (%), panel AD8”) was roughly 300 ng/mL.

On to B2, for which the “IC50 (read off the curve) … (%), panel AD8” value is roughly 5 ng/mL.

In the case of B3, the “IC50 (read off the curve) … (%), panel AD8” value was roughly 7 ng/mL.
